Experimental data: patent US20090285799A1 (CSL, published 2009)

Experiments:
[1] = molecular target: T1, hIL-13Rα1.ECR (N-terminal FLAG-tagged fusion protein of the extracellular region of human IL-13Rα1) (human, UniProt P78552 29-343); assay: BIACORE SPR, hIL-13Rα1.ECR immobilized on CM5 chip, antibody as analyte, bivalent model
T1 construct: also called human IL-13Rα1.ECR; hIL-13Rα1 extracellular domain
T1 sequence: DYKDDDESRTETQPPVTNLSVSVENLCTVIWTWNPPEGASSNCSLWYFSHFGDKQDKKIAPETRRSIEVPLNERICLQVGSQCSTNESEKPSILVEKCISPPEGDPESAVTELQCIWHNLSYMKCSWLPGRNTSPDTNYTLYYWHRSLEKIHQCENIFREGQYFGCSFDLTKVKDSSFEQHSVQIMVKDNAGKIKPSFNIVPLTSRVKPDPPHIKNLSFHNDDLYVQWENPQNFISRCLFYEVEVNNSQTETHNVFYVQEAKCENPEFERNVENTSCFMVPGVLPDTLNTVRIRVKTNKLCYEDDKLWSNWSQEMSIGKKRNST
Protocol: BIACORE-Based Studies. Human IL-13Rα1.ECR (40 μg/ml in 20 mM Sodium Acetate, pH 4.2) of Example 1 was immobilized to a sensorchip (CM5, Biosensor, Sweden) using standard NHS/EDC chemistry according to the manufacturer's instructions at a set immobilization value, for example, 1000RU. Ethanolamine (1.0 M) pH 8.0 was used to quench residual active esters post hIL-13Rα1.ECR immobilization.
Analysis of binding of antibody (concentration range of 1.4 nM to 150 nM, two-fold dilutions) to the immobilized hIL-13Rα1. ECR was performed in duplicate. Sensorgrams generated were fitted to a bivalent ligand binding model to simultaneously derive association (kₐ) and dissociation (kd) rates and used to determine binding affinity (KD, Biaevaluation software, BIACORE™, Sweden).

[2] = molecular target: T1, hIL-13Rα1.ECR (N-terminal FLAG-tagged …); assay: ELISA on plate-bound hIL-13Rα1.ECR
[3] = molecular target: T2, human IL-13Rα1 on normal human dermal fibroblast (NHDF) cells (human, UniProt P78552 27-427); assay: cell-based or functional assay
T2 sequence: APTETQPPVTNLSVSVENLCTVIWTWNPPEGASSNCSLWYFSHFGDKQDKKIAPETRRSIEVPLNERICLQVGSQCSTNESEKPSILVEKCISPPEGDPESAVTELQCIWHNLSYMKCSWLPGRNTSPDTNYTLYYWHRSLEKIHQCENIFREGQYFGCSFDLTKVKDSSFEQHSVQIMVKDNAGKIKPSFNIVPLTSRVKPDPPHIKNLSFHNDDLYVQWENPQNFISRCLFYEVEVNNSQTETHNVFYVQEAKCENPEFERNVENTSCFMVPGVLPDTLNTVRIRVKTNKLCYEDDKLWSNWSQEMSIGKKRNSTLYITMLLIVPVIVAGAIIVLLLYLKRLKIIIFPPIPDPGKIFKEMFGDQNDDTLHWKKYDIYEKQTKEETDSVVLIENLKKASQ

[4] = molecular target: T2, human IL-13Rα1 on normal human dermal …; assay: cell-based or functional assay; remark: listed apart in the source
[5] = molecular target: T3, IL-13Rα1 on whole blood cells or PBMCs (TARC release assay); assay: cell-based or functional assay
T3 sequence (P78552 whole entry, species assumed, looked up): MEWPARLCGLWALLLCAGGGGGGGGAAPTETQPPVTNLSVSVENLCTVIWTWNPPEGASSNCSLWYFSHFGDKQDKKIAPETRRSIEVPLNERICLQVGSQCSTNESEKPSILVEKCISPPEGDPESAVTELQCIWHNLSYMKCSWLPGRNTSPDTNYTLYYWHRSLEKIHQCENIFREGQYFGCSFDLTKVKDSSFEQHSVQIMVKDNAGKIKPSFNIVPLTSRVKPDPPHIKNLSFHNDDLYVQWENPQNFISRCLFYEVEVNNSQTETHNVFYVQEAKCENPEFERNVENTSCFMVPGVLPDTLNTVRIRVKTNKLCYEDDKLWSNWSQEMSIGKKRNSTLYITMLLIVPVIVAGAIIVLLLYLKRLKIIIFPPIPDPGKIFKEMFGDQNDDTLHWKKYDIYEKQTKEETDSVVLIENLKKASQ

B1: 2B6 (antibody, V domains shown)
VH: QVQLVESGGGVVQPGRSLRLSCAASGFTFSYYGMHWVRQAPGKGLEWVAFIWYDGSNKYYEDSVKGRFTISRDNSKNTLYLQMNSLRAEDTAVYYCARVAAAGAVEYFQHWGQGTLVTVSS
VL: AIQLTQSPSSLSASVGDRVTITCRASQVISSVLAWYQQKSGKGPKLLIYDASSLESGVPSRFSGSGSGTDFTLTISSLQPEDFATYYCQQFNSYPLTFGGGTKVEIK
notes: Human monoclonal antibody purified from a hybridoma of HuMAb transgenic mice; also called PTA-6932; 2136
[1]
  Kd: 16.5 nM
[2]
  Kd: 0.36 nM
[3]
  NHDF IL-13-induced STAT6 phosphorylation (EC50): 7 µg/mL
[4]
  NHDF cells IL-13 Eotaxin release (IC50) [on average]: 3.5 µg/mL

B2: 8B4 (antibody, V domains shown)
VH: EVQVLESGGGLVQPGGSLRLSCAASGFTFSNYAMTWVRQAPGKGLEWVSTISGRGYSIYYADSVKGRFTISRDNSKNTVYLQMNSLRAEDTAVYYCAKEEGHWYFDVWGRGTLVTVSS
VL: EIVLTQSPDFQSVTPKEKVTITCRASQSIGSSLHWYQQKPDQSPKLLIKYASQSFSGVPSRFSGSGSGTDFTLTINSLEAEDAAAYYCHQSSSLPYTFGQGTKLEIK
notes: Human monoclonal antibody purified from a hybridoma of HuMAb transgenic mice; also called PTA-6934
[1]
  Kd: 4.6 nM
[2]
  Kd: 0.267 nM
[5]
  IL-13-stimulated TARC release in whole blood or PBMCs (IC50): ~2.6 µg/mL
[3]
  NHDF IL-13-induced STAT6 phosphorylation (EC50): ~2.9 µg/mL
[4]
  NHDF cells IL-13 Eotaxin release (IC50) [on average]: 1 µg/mL

B3: 6C11 (antibody, V domains shown)
VH: EVQVLESGGGLVQPGGSLRLSCAASGFTFNNYALTWVRQAPGKGLEWVSTISGRGYSIYYADSVKGRFTISRDNSKNTVYLQMNSLRAEDTAVYYCAKEEGHWFFDVWGRGTLVTVSS
VL: EIVLTQSPDFQSVTPKEKVTITCRASQSIGSSLHWYQQKPDQSPKLLIKYASQSFSGVPSRFSGSGSGTDFTLTINSLEAEDAAAYYCHQSSSLPYTFGQGTKLEIK
notes: Human monoclonal antibody purified from a hybridoma of HuMAb transgenic mice; also called PTA-6930
[1]
  Kd: 2.1 nM
[2]
  Kd: 0.087 nM
[5]
  IL-13-stimulated TARC release in whole blood or PBMCs (IC50): 2.5 µg/mL
[3]
  NHDF IL-13-induced STAT6 phosphorylation (EC50): 3.8 µg/mL
[4]
  NHDF cells IL-13 Eotaxin release (IC50) [on average]: 9.7 µg/mL
